“Also recorded” adds a separate entry of the source. Where no end group is shown, it is not given here.
Columns and labels:
Fab 10E8 [1] = experiment: Binding of KK114-Fab 10E8 to single GUVs containing the peptides reconstituted (confocal microscopy); conditions: for Fab 10E8 binding vs TMD length and bilayer thickness (in words): GUVs of diC14:1PC, POPC, diC22:1PC
Procedure: To that end, we quantified antibody binding to single vesicles by confocal microscopy of Giant Unilamellar Vesicles (GUVs) incubated with fluorescently labeled Fab 10E8[36],[47].
Thus, to establish the influence of the bilayer thickness on the accessibility to the 10E8 epitope, we selected lipid bilayers made of diC14:1PC and diC22:1PC, which are respectively thinner and thicker than those made of POPC (C16:0-C18:1PC)[52],[53].
To prepare lipid bilayers containing reconstituted peptide, lipids and MPER-TMD-derived peptides were mixed in organic solvent prior to the production of the liposomes. Briefly, POPC dissolved in chloroform:methanol 1:2 (vol:vol) was mixed with peptide dissolved in HFIP at the desired peptide-to-lipid molar ratio. The mixture was dried under a N2 stream and traces of organic solvents were removed by 1 h vacuum pumping. Subsequently, the dried lipid films were subjected to 2 h of gentle hydration with H2O using a N2 gas bubbler to facilitate further dispersion of the dried lipid-peptide film in PBS aqueous buffer. Next, the multilamellar vesicles were bath sonicated (1 h, 55 °C) and subjected to 15 freeze and thaw cycles to obtain unilamellar vesicles.
For binding experiments, NBD-labeled GUVs were produced following the electro-formation method as previously described[47]. In brief, a total of 2 mM of lipid was dissolved in 200 μL CHCl3:CH3OH with the fluorescent probe NBD-PE (0.5%). When required, peptide dissolved in 10% (v/v) HFIP was included in the organic phase at 1:250 peptide-to-lipid molar ratio. The GUVs were added to a bovine serum albumin (BSA)-blocked microscope chamber that already included 250 nM of 10E8-based Fabs conjugated with the KK114 probe at residue C216HC, and were incubated for 15 min prior to imaging. […] Confocal microscopy images were acquired on an inverted confocal fluorescence microscope (Nikon Eclipse TE-2000, Nikon, Nikon Instruments, Tokyo, Japan). NBD-stained GUVs and Fabs conjugated with the KK114 probe were excited at 476 nm and 637 nm, respectively. […] The band pass filters used were 515/30 and Long Pass 650 nm. […]

[2] = Infrared spectroscopy (amide I) of peptides reconstituted in lipid bilayers; assay type: physicochemical; conditions: for IR amide-I band area, 1630 cm^−1 (solvated helices) / IR amide-I band area, 1642 cm^−1 (helix-helix interactions/disordered) / IR amide-I band area, 1655 cm^−1 (α-helix) / IR amide-I band area, 1670 cm^−1 (turns): monounsaturated PC, D2O PBS
Description: In addition, the lipid bilayer distance covered by the hydrocarbon acyl chains strongly conditions the favorable interactions between TMDs and lipids, so that a mismatch between this distance and the TMD length can give rise to alterations in the structure and function of the integral membrane proteins. Therefore, to rule out DC effects on the conformations adopted by the reconstituted MPER-TMD peptides, we performed IR experiments and varied systematically this parameter utilizing a complete series of monounsaturated PCs (i.e., diC14:1PC, diC16:1PC, diC18:1PC, diC20:1PC and diC22:1PC)[55].
Infrared spectra were recorded in a Bruker Tensor 27 spectrometer equipped with a mercury-cadmium-telluride detector using a Peltier-based temperature controller (TempCon, BioTools Inc., Wauconda, IL) with calcium fluoride cells (BioCell, BioTools Inc., Wauconda, IL). Lipid vesicles with the peptides reconstituted were lyophilized and subsequently prepared at 3 mg/mL in D2O buffer (PBS). A 25 μL sample aliquot was deposited on a cell that was sealed with a second cell. Reference windows without peptide were prepared similarly. Typically, 1000 scans were collected for each background and sample, and the spectra were obtained with a nominal resolution of 2 cm^−1. Data treatment and band decomposition of the original amide I have been described elsewhere.

Fab 10E8 [3] = experiment: AFM single-molecule force spectroscopy of Fab 10E8-peptide unbinding in POPC SPBs; assay type: binding; conditions: for MPRF (most probable rupture force), mean: 1:50
Procedure: SPBs were produced by the vesicle adsorption method and their topography analyzed using a Nanowizard III AFM (JPK Instruments) under contact mode. Briefly, approximately 30 µl of the vesicle suspensions described above were deposited onto freshy cleaved mica disks (area 15 mm^2) preincubated with 30 µl of 150 mM KCl, 10 mM Tris, pH = 7.4 (measurement buffer) and incubated for 30 min at room temperature, leading to the formation of SPBs. The samples were carefully rinsed with measurement buffer before the AFM experiment and always kept under aqueous environment. BL-AC40-C2 Si3N4 cantilevers (Olympus, Japan) with a nominal spring constant of 0.09 N/m were used for bilayer imaging with 0.5 nN of force applied.
For single molecule force spectroscopy, MLCT-BIO probes (Bruker, Santa Barbara, CA USA) were functionalized with Fab 10E8 using well established protocols. To that end, cantilevers were first rinsed with acetone and water, exposed to UV-ozone and coated with 3-Aminopropyldimethylethoxysilane (APDMES). They were then incubated with glutaraldehyde and finally with Fab. Finally, to passivate possible unreacted aldehyde moieties, cantilevers were incubated in 0.1% Bovine Serum Albumin (BSA) for 1 h at room temperature and rinsed in measurement buffer prior to use. Force maps were recorded using a maximum applied force of 0.2 nN, a varying contact time of 0.5, 1, 2 and 5 s and varying retraction speeds of 0.1 µm/s, 2 µm/s and 10 µm/s. Data were analyzed with the data processing software from JPK Instruments (Berlin, Germany).
To determine the MPRF at a given loading rate the frequency histograms of the measured forces were fitted to a Gaussian distribution (Eq. 1) and its maximum calculated.1 y=Amplitude⋅exp−0.5⋅x−Mean/SD^2
MPRF is a function of the loading rate as defined by (Eq. 2):2 MPRF=kβ⋅T/χβlnrf⋅χβ/koff⋅kβ⋅T where kβ is Boltzmann constant, T is the temperature, koff is the natural dissociation rate at zero force and rf is the loading rate.
These parameters can be actually obtained from the slope of the linear fit of the data, and by linearly extrapolating the experimental data to zero external force, respectively.

[4] = GUV permeabilization (soluble KK114 entry); conditions: POPC GUVs with peptide reconstituted
Procedure: When required, peptide dissolved in 10% (v/v) HFIP was included in the organic phase at 1:250 peptide-to-lipid molar ratio. […] For GUV permeabilization assays, GUVs were added to a BSA-blocked microscope chamber that already included the unconjugated and soluble KK114 dye, and were incubated for 15 min prior to imaging. Confocal microscopy images were acquired on an inverted confocal fluorescence microscope (Nikon Eclipse TE-2000, Nikon, Nikon Instruments, Tokyo, Japan). […] The band pass filters used were 515/30 and Long Pass 650 nm. The objective used was a 63X oleo immersion with a numerical aperture (NA) of 1.2.

[5] = Breakthrough force of POPC SPBs (FS-AFM); conditions: peptide-to-lipid 1:50
Description: Permeabilization of single vesicles correlated with effects of the reconstituted peptides on the nanomechanical stability of SPBs analyzed by FS-AFM[57] (Fig. 6b). In this approach, we measured the breakthrough forces of the different SPBs to quantitatively determine the nanomechanical resistance to membrane rupture. By comparing the AFM tip indentations through the different bilayer systems at the same approach speed, we measured the discontinuity in the approach curve which corresponds to the breakthrough force; a parameter widely used to assign the mechanical stability of SPBs[57]. […] This increase was even larger than that observed in an SPB containing 50 mol % cholesterol, which was added as a stiffening-control sample to the analysis. […]
SPBs were produced by the vesicle adsorption method and their topography analyzed using a Nanowizard III AFM (JPK Instruments) under contact mode. […]
Force spectroscopy data for SPB breakthrough measurements were collected using SNL10 Si3N4 cantilever (Bruker, Santa Barbara, CA, USA) with a nominal spring constant of 0.35 N/m, at a speed of 1 µm/s and applying 10 nN of maximum force. Discontinuities in the force versus separation approach curve were determined for each of the indentation curves as reproducible jumps within the extended traces using JPK data processing software.

[6] = Vesicle flotation (incorporation of reconstituted peptides into membranes); assay type: physicochemical; conditions: POPC, 1:50 mol:mol, flotation in sucrose gradient, Western blot
Description: Supplementary Figure 4: Incorporation of reconstituted peptides into membranes. (a) Diagram illustrating the Liposome flotation method. Liposome-peptide co mplex es were subjected to ultracentrifugation in a sucrose gradi ent after the reconstitution process. (b) The pres ence of th e peptides in the floated and non- floated fractions o f the gradient and in the original sample (input) as reveal ed b y Western Blot anal ysis aft er Tris -Tricine SDS-PAGE separation. Line plots below […]
liposomes. The peptide-to-lipid ratio was 1:50 (mol:mol).
(1 picture or pasted object on this page, not shown here)

[7] = hydrocarbon thickness DC 22.8 Å
[8] = reconstituted in POPC bilayers, 1:50

Substance	Fab 10E8 binding vs TMD length and bilayer thickness (in words) (Fab 10E8 [1])	IR amide-I band area, 1630 cm^−1 (solvated helices) ([2]; DC 25.6 Å) [%]	IR amide-I band area, 1642 cm^−1 (helix-helix interactions/disordered) ([2]; DC 25.6 Å) [%]	IR amide-I band area, 1655 cm^−1 (α-helix) ([2]; DC 25.6 Å) [%]	IR amide-I band area, 1670 cm^−1 (turns) ([2]; DC 25.6 Å) [%]	IR amide-I band area, 1630 cm^−1 (solvated helices) ([2]; DC 29 Å) [%]	IR amide-I band area, 1642 cm^−1 (helix-helix interactions/disordered) ([2]; DC 29 Å) [%]	IR amide-I band area, 1655 cm^−1 (α-helix) ([2]; DC 29 Å) [%]	IR amide-I band area, 1670 cm^−1 (turns) ([2]; DC 29 Å) [%]	IR amide-I band area, 1630 cm^−1 (solvated helices) ([2]; DC 32 Å) [%]	IR amide-I band area, 1642 cm^−1 (helix-helix interactions/disordered) ([2]; DC 32 Å) [%]	IR amide-I band area, 1655 cm^−1 (α-helix) ([2]; DC 32 Å) [%]	IR amide-I band area, 1670 cm^−1 (turns) ([2]; DC 32 Å) [%]	IR amide-I band area, 1630 cm^−1 (solvated helices) ([2]; DC 35 Å) [%]	IR amide-I band area, 1642 cm^−1 (helix-helix interactions/disordered) ([2]; DC 35 Å) [%]	IR amide-I band area, 1655 cm^−1 (α-helix) ([2]; DC 35 Å) [%]	IR amide-I band area, 1670 cm^−1 (turns) ([2]; DC 35 Å) [%]	IR amide-I band area, 1630 cm^−1 (solvated helices) [2, 7] [%]	IR amide-I band area, 1642 cm^−1 (helix-helix interactions/disordered) [2, 7] [%]	IR amide-I band area, 1655 cm^−1 (α-helix) [2, 7] [%]	other results
C-MPER-TMD700: Env residues 671–700, HXB2 numbering, containing a minimal TMD anchor and Lys-tags added at both ends (NWFNITNWLWYIKLFIMIVGGLVGLRIVFA; also: Lys-tags added at both ends, length not given here; UniProt P04578 671-700, looked up, fragment)	C-MPER-TMDLLA-709 > C-MPER-TMD709 > C-MPER-TMD700	8.1	31.2	52.3	7	8.4	39.3	48.1	2.6	6.4	39.8	49.8	3.9	3.1	52	39.7	1	5.8	35.1	51.8	IR amide-I band area, 1670 cm^−1 (turns) [2, 7]: 7.4%
C-MPER-TMD709: Env residues 671–709, HXB2 numbering, which included the nominal Env TMD sequence (Env residues 684–709) (NWFNITNWLWYIKLFIMIVGGLVGLRIVFAVLSIVNRVR; UniProt P04578 671-709, looked up, fragment)	C-MPER-TMDLLA-709 > C-MPER-TMD709 > C-MPER-TMD700	18.9	31	41.6	4.9	14	33.4	45.2	4.6	16	34.8	43.2	3.4	15.8	40	38.5	2.9	20	34.5	33.8	Fab 10E8 binding to GUVs (in words) (Fab 10E8 [1]; POPC GUVs, peptide-to-lipid 1:250, 250 nM Fab): appeared to bind more efficiently to C-MPER-TMD709-containing vesicles than to the N/C-MPER683-containing ones; koff ratio among peptides (Fab 10E8 [3]; N/C-MPER683 vs C-MPER-TMD709, POPC SPBs): ≈ 22; attachment (binding) frequency (in words) (Fab 10E8 [3]; POPC SPBs, vs N/C-MPER683, contact time series, retraction 2 μm s^−1): attachment appeared to occur at higher frequency; MPRF (in words) (Fab 10E8 [3]; POPC SPBs, contact time 0.5 s, loading rate 41 nN s^−1, vs N/C-MPER683): clearly shifted to higher values; t0.5(N/C-MPER)/t0.5(C-MPER-TMD) (Fab 10E8 [3]; interaction time for half maximal probability of binding, POPC SPBs): ≈ 1.4; MPRF (most probable rupture force), mean (Fab 10E8 [3]; ln (loading rate pN/s) 3.62033, POPC SPBs): 33.4766 pN; MPRF (most probable rupture force), mean (Fab 10E8 [3]; ln (loading rate pN/s) 4.62006, POPC SPBs): 53.13 pN; MPRF (most probable rupture force), mean (Fab 10E8 [3]; ln (loading rate pN/s) 6.62009, POPC SPBs): 93.3506 pN; MPRF (most probable rupture force), mean (Fab 10E8 [3]; ln (loading rate pN/s) 7.62012, POPC SPBs): 73.97 pN; MPRF (most probable rupture force), mean (Fab 10E8 [3]; ln (loading rate pN/s) 8.62012, POPC SPBs): 81.12 pN; MPRF (most probable rupture force), mean (Fab 10E8 [3]; ln (loading rate pN/s) 9.62012, POPC SPBs): 90.66 pN; MPRF (most probable rupture force), mean (Fab 10E8 [3]; ln (loading rate pN/s) 10.6201, POPC SPBs): 135 pN; permeabilization (in words) [4]: viewed as empty spheres; also recorded: essentially impermeable; breakthrough force (in words) [5]: increased the values of the forces at which rupture was observed; incorporation into membranes (in words) [6]: total incorporation; IR amide-I band area, 1670 cm^−1 (turns) [2, 7]: 6.4%; IR amide-I absorption maximum [2, 8]: around 1650 cm^−1; IR amide-I band component [2, 8]: 1642 cm⁻¹
